The values below come from US11866760B2, “Microorganisms for the production of insect pheromones and related compounds” (Provivi, Inc., priority 2017, dated 2024).

Positions count from the first letter of the chain named. In names and notes the source's numbering stands.

The target in one data set is T1, ALE1p (=LCA1p) (Saccharomyces cerevisiae, UniProt Q08548).
T1 sequence (Q08548 1-619): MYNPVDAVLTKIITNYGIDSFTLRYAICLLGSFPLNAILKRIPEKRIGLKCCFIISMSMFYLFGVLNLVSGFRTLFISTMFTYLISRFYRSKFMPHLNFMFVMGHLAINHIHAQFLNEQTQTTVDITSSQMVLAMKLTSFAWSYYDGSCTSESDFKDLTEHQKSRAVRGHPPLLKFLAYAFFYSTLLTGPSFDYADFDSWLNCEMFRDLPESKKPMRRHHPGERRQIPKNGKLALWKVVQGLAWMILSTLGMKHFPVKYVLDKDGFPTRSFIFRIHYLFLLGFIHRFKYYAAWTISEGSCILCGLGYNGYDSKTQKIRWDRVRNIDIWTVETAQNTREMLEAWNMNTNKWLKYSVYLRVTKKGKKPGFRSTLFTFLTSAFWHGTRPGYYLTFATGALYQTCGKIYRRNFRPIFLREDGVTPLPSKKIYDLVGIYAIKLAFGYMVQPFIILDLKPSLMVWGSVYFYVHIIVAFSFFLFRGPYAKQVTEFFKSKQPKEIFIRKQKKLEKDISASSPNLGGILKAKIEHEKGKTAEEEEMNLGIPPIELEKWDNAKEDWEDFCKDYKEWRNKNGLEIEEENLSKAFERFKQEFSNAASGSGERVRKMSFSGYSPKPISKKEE
The conditions noted are these: Chen Q et al. 2007; cited from earlier work.

The test system of data set [1] is methyl palmitate. The data set can be described thus: HaFAR mutant library cultivation in 24 well plates in Y. lipolytica SPV603. The class given is cell-based, Yarrowia lipolytica. The conditions noted are these: second FAR copy in SPV603, 24 well plates. On the procedure: Four individual clones of positive integrants were tested. Cultivation was performed in 24 well plates. Briefly, 2 mL YPD was inoculated from patches of individual clones and incubated for 24 h at 28° C., 1000 rpm. After 24 h OD600 was measured and the cells were centrifuged at 1000 rpm (Table 23). The cell pellets were resuspended in 1 mL S2 media and 10 g/L methyl palmitate was added. The cells were incubated for 18 h at 28° C., 1000 rpm. Cultivations were stored at −20° C. until analyzed. Extraction and analysis was performed according to previously established standard protocols using GC-FID.
In a first round four individual isolate from each transformation was tested. Cultivation was performed in 24 well plates. 2 mL YPD was inoculated from patches of individual clones and incubated for 24 h at 28° C., 1000 rpm. After 24 h OD600 was measured and the cells were centrifuged at 1000 rpm. The cell pellets were resuspended in 1 mL S2 media and 10 g/L methyl palmitate was added. The cells were incubated for 24 h at 28° C., 1000 rpm. Cultivations were stored at −20° C. until analyzed. Next, four clones of the best performing positive integrant were tested. Cultivation was performed in 24 well plates. 2 mL YPD was inoculated from patches of individual clones and incubated for ˜28 h at 28° C., 1000 rpm. After 28 h OD600 was measured and the cells were centrifuged at 1000 rpm. The cell pellets were resuspended in 1 mL S2 media and 10 g/L methyl palmitate was added. The cells were incubated for 18 h at 28° C., 1000 rpm. Cultivations were stored at −20° C. until analyzed.
Cell pellets were resuspended with 500 μL 5% NaOH (in methanol) then heated for 1 hour at 85° C. Samples were cooled down and then acidified by adding 400 μL 5N HCl. Next, 500 μL chloroform (containing 1 mM C17:0 heptadecanoate internal standard) were added to samples. Samples were mixed vigorously then spun down for 2 minutes at 13,000 RPM using a table top centrifuge. 450 μL chloroform were transferred to a new vial then evaporated at 85° C. for ˜15 minutes. Samples were then resuspended in 50 μL BSTFA (and were now ready for GC analysis). After analysis of the fatty alcohols samples were diluted ˜1:10 and rerun on the GC to improve peak separation of the fatty acid peaks.
All quantifications were based on the concentration of the internal standard. The concentration of the internal standard C17ME is 1 mM. The final concentration of fatty alcohols as well as fatty acids were calculated based on the effective carbon number compared to the internal standard.

Data set [2] concerns methyl palmitate. The data set can be described thus: HaFAR mutant library cultivation in shake flasks. The class given is cell-based, Yarrowia lipolytica. The conditions noted are these: shake flask experiments, 10 g/L methyl palmitate. As for the experimental part: In a first step a shake flask experiment of the respective strains was performed to analyze fatty alcohol and fatty acid formation over time. The best performing clone of the strains expressing HaFAR, HaFAR S195A and HaFAR S418A were tested. 10 mL YPD was inoculated from patches of individual clones and incubated for 24 h at 28° C., 250 rpm in a 125 mL shake flask. Next, 25 mL YPD were inoculated with 5 mL starter culture in 500 mL shake flasks and incubated for 24 h at 28° C., 250 rpm. The cells were harvested and the pellets were resuspended in 15 mL S2 media and 10 g/L methyl palmitate was added. OD600 was measured and subsequently methyl palmitate was added. […] 4×0.5 mL samples were taken every 24 h and stored at −20° C. until analyzed according to a previously established standard protocol (FIG. 47 and FIG. 48). To improve sampling and reduce the standard deviation, samples were transferred directly into GC crimp vials and stored until analyzed.
Thus, sampling was reduced to 20 h. In previous 24 well plate bioconversion experiments the measured biomass was ˜2× higher compared to the shake flask experiment. […] The cells were harvested and the pellets were resuspended in 10 mL S2 media and 10 g/L, OD600 was measured and subsequently methyl palmitate was added. […] 4×0.5 mL samples were taken and analyzed according to a previously established standard protocol (FIG. 49). […]

With `[Zn+2]` [Zn2+], the inhibitory concentration entry at ALE1p (=LCA1p) was “above 0.1 mM”.

B1: HaFAR (S418A) (protein)
chain: MVVLTSKETKPSVAEFYAGKSVFITGGTGFLGKVFIEKLLYSCPDIENIYMLIREKKGLSVSERIKQFLDDPLFTRLKDKRPADLEKIVLIPGDITAPDLGINSENEKMLIEKVSVIIHSAATVKFNEPLPTAWKINVEGTRMMLALSRRMKRIEVFIHISTAYTNTNREVVDEILYPAPADIDQVHQYVKDGISEEDTEKILNGRPNTYTFTKALTEHLVAENQAYVPTIIVRPSVVAAIKDEPLKGWLGNWFGATGLTVFTAKGLNRVIYGHSSYIVDLIPVDYVANLVIAAGAKSSKSTELKVYNCCSSSCNPVTIGTLMSMFADDAIKQKSYAMPLPGWYIFTKYKWLVLLLTFLFQVIPAYVTDLSRHLIGKSPRYIKLQSLVNQTRSSIDFFTNHSWVMKADRVRELYASLAPADKYLFPCDPTDINWTHYIQDYCWGVRHFLEKKSYE
Consider B1, for which, in the data set on methyl palmitate [1], the “Z11-16OH titers compared to the HaFAR double copy strain” value was “distinct increase of Z11-16OH titers”. In addition, the Z11-16OH titer in the data set with methyl palmitate [2] is recorded as approximately 80 mg/L.

B2: HaFAR (S195A) (protein)
chain: B1 chain with S195A, A418S
Consider B2, for which the “Z11-16OH titers compared to the HaFAR double copy strain” value in the data set with methyl palmitate [1] was “distinct increase of Z11-16OH titers”. This molecule registered a Z11-16OH titer with methyl palmitate [2] of approximately 120 mg/L.
